Test results as given in patent US11357847B2, “Modified HSV gD protein and vaccine containing same” (KM Biologics Co., Ltd., priority 2017, dated 2022).

Legend:
[1] = tested on: various anti-gD2 antibodies; assay: Reactivity of gD variants with anti-gD2 antibodies (competitive ELISA); type: binding, human; settings: for Reactivity with anti-gD2 antibody 1 / Reactivity with anti-gD2 antibody 5 / Reactivity with anti-gD2 antibody 13 / Reactivity with anti-gD2 antibody 72 / Reactivity with anti-gD2 antibody 75 / Reactivity with anti-gD2 antibody 78 / Reactivity with anti-gD2 antibody 82: immobilized gD variant
Description: Each anti-gD2 monoclonal antibody and each gD variant were expressed using an Expi293 expression system.

[2] = Properties of produced gD variants (aggregates); type: physicochemical; settings: expressed and purified variant
Description: Four gD1-275-based variants were produced. Since these were FR3-deficient variants, V231W mutations affecting FR3 were not investigated. […] Meanwhile, eight gD1-315-based variants were produced, and none of the variants were less than the original gD1-315 in both properties and expression level.

HSV-2 MS strain = assay: Mouse infection-prevention test of modified gD (genital herpes infection model); type: in vivo, BALB/c mice; design: key to Determination (vs gD1-315) / Determination# (vs gD1-315): ++: minimum effective dose based on the Significant difference test in three-fold common ratio relative to gD1-315(WT) of two or more doses stronger; +: those of one dose stronger; ±: those of an equivalent value; settings: Experiment 3
Description: Immunogenicity test of the modified gD antigen was performed using the wild-type gD antigen gD1-315 (WT) as a positive control and saline as a negative control. A predetermined amount of antigen was dissolved in saline for injection (saline) with MPLA (10 μg/mouse) and CpG (1 μg/mouse) and immunized to mice at a volume of 200 μL/mouse. BALB/c mice (5 weeks old, female) were used for the study and immunized subcutaneously in back at 2-week intervals for a total of 3 times (N=4 cases per group). Two weeks after the final immunization (third dose), blood was collected and serum was prepared for each individual. The prepared serum was serially diluted and assessed for neutralizing antibody-inducing activity against HSV-2 (50% plaque number-reducing activity).
An infection-prevention test in the preventive administration of modified gD antigen was performed using a mouse genital herpes infection model. Similar to the mouse immunogenicity test described above, mice were immunized with the number of N=10 cases per group. Depo-Provera was inoculated subcutaneously at 2 mg/mouse 6 days prior to viral inoculation to improve the multiplicity of infection upon viral inoculation 2 weeks after final immunization (third dose). 5×10^5 PFU/20 μL HSV-2 MS strain was inoculated transvaginally under anesthesia and observed for 21 days. Infection prevention ability was evaluated using survival time (survival rate) as index.
The infection model of the mouse genital herpes infection model was used to evaluate infection prevention ability of various modified gD in preventive administration. The number of animal cases in each group was set to n=10, and wild-type gD (gD1-315) was used as a positive control and saline was used as a negative control. The experiments were performed a total of four times (experiments 1-4) and four doses of 0.1 μg/mouse/time, 0.03 μg/mouse/time, 0.01 μg/mouse/time and 0.003 μg/mouse/time were set for all of the positive control, negative control, and subject modified gD antigen. Depo-Provera was inoculated subcutaneously at 2 mg/mouse 6 days prior to viral inoculation to improve the multiplicity of infection upon viral inoculation 2 weeks after final immunization (third dose). 5×10^5 PFU/20 HSV-2 MS strain was inoculated transvaginally under anesthesia and observed for 21 days. Infection prevention ability was evaluated using survival time (survival rate) as index. Mean values of those were plotted in the graph. A Significant difference test for the negative control group was performed by the Kaplan-Meier method, and those with a minimum effective dose based on the Significant difference test in three-fold common ratio relative to wild type gD of two or more doses stronger were determined to be “++”, those of one dose stronger were determined to be “+”, and those of an equivalent value were determined to be “±”.

[3] = fourth dose line, 0.03 μg/head/time

Molecule | Reactivity with anti-gD2 antibody 1 [1] | Reactivity with anti-gD2 antibody 5 [1] | Reactivity with anti-gD2 antibody 13 [1] | Reactivity with anti-gD2 antibody 72 [1] | Reactivity with anti-gD2 antibody 75 [1] | Reactivity with anti-gD2 antibody 78 [1] | Reactivity with anti-gD2 antibody 82 [1] | Properties of the variant (aggregates) [2] | Relative reactivity with antibody No. 82 (gD1-315 wild-type set to 1) ([1]; FIG. 13) | Mean survival time (HSV-2 MS strain; 0.01 μg/head/time) | Significant difference test (vs saline) (HSV-2 MS strain; 0.01 μg/head/time) | Mean survival time (HSV-2 MS strain; 0.03 μg/head/time) | Significant difference test (vs saline) (HSV-2 MS strain; 0.03 μg/head/time) | Mean survival time (HSV-2 MS strain; 0.1 μg/head/time) | Significant difference test (vs saline) (HSV-2 MS strain; 0.1 μg/head/time) | Mean survival time (HSV-2 MS strain; [3]) | Significant difference test (vs saline) (HSV-2 MS strain; [3]) | Determination# (vs gD1-315) (HSV-2 MS strain; minimum effective dose relative to gD1-315(WT))
gD1-275v3: gD1-275 with glycochain at P50 (SC-F) (protein) KYALADPSLKMADPNRFRGKNLPVLDQLTDPPGVKRVYHIQPSLEDPFQNASIPITVYYAVLERACRSVLLHAPSEAPQIVRGASDEARKHTYNLTIAWYRMGDNCAIPITVMEYTECPYNKSLGVCPIRTQPRWSYYDSFSAVSEDNLGFLMHAPAFETAGTYLRLVKINDWTEITQFILEHRARASCKYALPLRIPPAACLTSKAYQQGVTVDSIGMLPRFIPENQRTVALYSLKIAGWHGPKPPYTSTLLPPELSDTTNATQPELVPEDPEDHHHHHH | − ((−): less than 30%) | − ((−): less than 30%) | − ((−): less than 30%) | − ((−): less than 30%) | − ((−): less than 30%) | − ((−): less than 30%) | + ((+): 70% or more) | no change in properties | – | – | – | – | – | – | – | – | – | –
gD1-275v5: gD1-275 with glycochains at R186 (SC-A) and P50 (SC-F) (protein) KYALADPSLKMADPNRFRGKNLPVLDQLTDPPGVKRVYHIQPSLEDPFQNASIPITVYYAVLERACRSVLLHAPSEAPQIVRGASDEARKHTYNLTIAWYRMGDNCAIPITVMEYTECPYNKSLGVCPIRTQPRWSYYDSFSAVSEDNLGFLMHAPAFETAGTYLRLVKINDWTEITQFILEHRANASCKYALPLRIPPAACLTSKAYQQGVTVDSIGMLPRFIPENQRTVALYSLKIAGWHGPKPPYTSTLLPPELSDTTNATQPELVPEDPEDHHHHHH | − ((−): less than 30%) | − ((−): less than 30%) | − ((−): less than 30%) | + ((+): 70% or more) | − ((−): less than 30%) | − ((−): less than 30%) | + ((+): 70% or more) | no change in properties | substantially similar reactivity | – | – | – | – | – | – | – | – | –
gD1-315v3V: gD1-315 with glycochain at SC-F and V231W (protein) KYALADPSLKMADPNRFRGKNLPVLDQLTDPPGVKRVYHIQPSLEDPFQNASIPITVYYAVLERACRSVLLHAPSEAPQIVRGASDEARKHTYNLTIAWYRMGDNCAIPITVMEYTECPYNKSLGVCPIRTQPRWSYYDSFSAVSEDNLGFLMHAPAFETAGTYLRLVKINDWTEITQFILEHRARASCKYALPLRIPPAACLTSKAYQQGVTVDSIGMLPRFIPENQRTWALYSLKIAGWHGPKPPYTSTLLPPELSDTTNATQPELVPEDPEDSALLEDPAGTVSSQIPPNWHIPSIQDVAPHHAPAAPSNPGHHHHHH | + ((+): 70% or more) | − ((−): less than 30%) | + ((+): 70% or more) | − ((−): less than 30%) | − ((−): less than 30%) | − ((−): less than 30%) | + ((+): 70% or more) | – | – | 7 days | * (* 0.01 = < p < 0.05) | >21 days | *** (*** p < 0.001) | >21 days | *** (*** p < 0.001) | 6 days | N.S. | ±
